In the Human Domainome abundance scans (Beltran et al. 2025):

B1: Transcriptional repressor p66-beta, residues 415 to 455; numbered along this chain, Q8WXI9 (parent)
chain: VEPFVCAQCRTDFTPHWKQEKNGKILCEQCMTSNQKKALKA

Variants of: B1
Assay: abundance fitness (aPCA) (normalised: wild type 0, dead -1); higher = more abundant; growth selection in yeast, the domain comes from the species named
Settings: Homo sapiens

Abundance fitness, by site and new letter:
M31: V -0.083; D -0.106; G 0.01; T -0.054; A -0.038; P -0.97; L -0.274; W -0.041; Q 0.05; R -0.178; S -0.042; E -0.033; K -0.043; Y 0.161
D12: P -0.118; F -0.149; E 0.032; S 0.117; Y -0.025; Q -0.208; N 0.187; C 0.141; L -0.198; V 0.312; A 0.064; T -0.016; K -0.274; H 0.081
N34: E 0.127; C -0.197; A -0.076
C27: W -1.02; A -1.01; E -0.319; H 0.039; T -1.38; D -0.504; Y -0.444; L -1.32; S -0.739; V -1.11; M -1.31; G -1.05; Q -0.79; R -1.06
F13: A 0.139; E -0.007; L -0.179; K -0.629; W -0.213; S -0.164; Q -0.593; H -0.244; R -0.144; V 0.337; T 0.039; D -0.21; M 0.192; G -0.116
E20: R -0.314; W -0.362; V -0.013; Q -0.303; L -0.254; C 0.158; G -0.034; S -0.115; T -0.315; D -0.645; I 0.391; A -0.498; F -0.696; K -0.468; P -0.631
S33: A -0.04; D 0.002; W -0.379; L -0.176; T -0.01; P -0.011; M 0.048; V -0.104; F -0.919; R -0.122; Q -0.017; K -0.222; E -0.007; C -0.113; Y 0.28; H 0.121
L26: D -0.295; I -0.004; G -0.304; T -0.39; N -0.411; R -0.145; W -0.113; H 0.12; C -0.075; F 0.003; V -0.196; S -0.077; K -0.218; P -0.125; E -0.194; Q -0.075; M 0.358
G23: T 0.045; L 0.142; V 0.092; R 0.003; E 0.189; P -0.016; M 0.422; N 0.303; A 0.148; H 0.385; C -0.137; Q 0.335; W -0.392; S -0.104; D 0.343
K18: E 0.098; W -0.195; F -0.312; C 0.01; H 0.155; T -0.164; M -0.011; G 0.098; I -0.295; R -0.072; Y -0.447; S 0.021; V 0.011; L -0.217; Q -0.105; D -0.099; P -0.165
W17: H 0.009; Q 0.523; C 0.149; T 0.564; I 0.013; A -0.009; R 0.092; P -0.135; D 0.285; V 0.082; S 0.127; Y 0.557; K 0.387; E 0.196; L 0.051
K24: H 0.013; D -0.166; M -0.082; S -0.228; E 0.17; A -0.079; T -0.174; L -0.106; G -0.02; Q 0.097; C -0.213; V -0.148; R 0.028
